Key:
E2F-1 = E2F-1 (UniProt Q01094 Q01094:1-437); test: cell_activity; CAT stimulation by CMV-E2F in L6 muscle cells; tetramer on minimal GAPDH promoter; settings: tags: CMV-E2F expression plasmid
GST-RBAP-1 (E2F-1) [1] = target: T1, GST-RBAP-1 (E2F-1) (UniProt Q01094 Q01094:1-437); test: competition; competitor vs labelled IRE-A; settings: tags: GST fusion, bacterial expression, glutathione Sepharose purified; label: 32P when used as probe
Protocol: (§1) FIG. 4C is an electrophoretic mobility shift assay showing IRP-A and GST-RBAP-1 complexes with IRE-A DNA. GST-RBAP-1 (lanes 1–3) or nuclear proteins isolated from fasted-refed liver nuclear extract (lanes 4–6) were incubated with ^32P-labelled IRE-A DNA in the presence of: lanes 1 and 4, mutant IRE-A DNA (GC→TA); lanes 2 and 5, wild-type E2 DNA; and, lanes 3 and 6, mutant E2 DNA (GC→TA) as described above.
(§2) The EMSA procedure has been described previously (Nasrin, et al., Proc. Natl. Acad. Sci. USA, 87:5273–5277, 1990). Nuclear extract or GST-RBAP-1 was incubated with 0.25–0.5 ng of ^32P-labelled oligo in 20 μl of binding buffer containing 10 mM HEPES (pH 7.9), 0.1 mM EDTA, 10 mM MgCl_2, 5 mM KCl, 150 mM NaCl, 25 mM DTT and 250 ng of poly(dI)poly(dC). The reaction products were separated at 4° C. in a 4.5% polyacrylamide gel run in 50 mM Tris-HCL (pH 8.5), 380 mM glycine and 2 mM EDTA. The gel was dried and exposed to film. The sequences of the oligonucleotides used to characterize IRE-A-like and E2F-like DNA binding activities are shown. Cognate E2F sites include E2F wild-type, 5'-[…]-[…]-3' (SEQ ID NO: 4); E2F mutant, 5'-ATT-[…]-3' (SEQ ID NO: 5); DRTF wild-type, 5'-[…]-3' (SEQ ID NO: 6). The GAPDH IRE-A used for gel shifts included nucleotides −487 to −408 of the promoter (Nasrin, et al., Proc. Natl. Acad. Sci. USA, 87:5273–5277, 1990). […]

GST-RBAP-1 (E2F-1) [2] = target: T1, GST-RBAP-1 (E2F-1); test: competition; mutant competitor vs labelled IRE-A; settings: tags: GST fusion, bacterial expression, glutathione Sepharose purified
Protocol: as §1, §2

T1 sequence (Q01094 whole entry, the tested form may be a part, one chain of several): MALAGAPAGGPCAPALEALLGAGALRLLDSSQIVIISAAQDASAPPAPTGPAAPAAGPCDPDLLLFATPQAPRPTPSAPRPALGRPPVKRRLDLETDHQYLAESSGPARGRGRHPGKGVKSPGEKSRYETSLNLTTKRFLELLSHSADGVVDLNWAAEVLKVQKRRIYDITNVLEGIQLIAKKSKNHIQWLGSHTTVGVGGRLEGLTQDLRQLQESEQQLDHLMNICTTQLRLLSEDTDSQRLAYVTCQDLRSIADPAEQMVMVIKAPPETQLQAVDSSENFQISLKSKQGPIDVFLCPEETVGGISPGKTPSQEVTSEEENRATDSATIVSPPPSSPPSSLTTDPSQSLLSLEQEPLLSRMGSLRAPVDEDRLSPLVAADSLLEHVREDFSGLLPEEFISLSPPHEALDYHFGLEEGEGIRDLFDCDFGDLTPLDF
Chain of E2F-1 (Q01094 whole entry, the tested form may be a part, one chain of several): as above

B1: IRE-A minimal motif tetramer-CAT (dsDNA)
DNA 1: AAGTTCCCCAACTTTCCCGCCTCTCAGCCTTTGAAAG
DNA 2: CTTTCAAAGGCTGAGAGGCGGGAAAGTTGGGGAACTT
Work on B1 yielded an activity (E2F-1) of 7 fold.

B2: E2 (cognate E2F site) wild-type (dsDNA)
DNA 1: ATTTAAGTTTCGCGCCCTTTCTCAA
DNA 2: TTGAGAAAGGGCGCGAAACTTAAAT
B2: binds (GST-RBAP-1 (E2F-1) [1]).

B3: E2 mutant (GC to TA) (dsDNA)
DNA 1: ATTTAAGTTTCGATCCCTTTCTCAA
DNA 2: TTGAGAAAGGGATCGAAACTTAAAT
B3: no binding (GST-RBAP-1 (E2F-1) [2]).

From patent US5496831, “Inhibition of insulin-induced adiposis” (The General Hospital Corporation)
